Data: publication PMC4227133

Target: Gal4 Cyclin T1s with a mutated Y175

- other: 2 fold
B1: Hexim1, endogenous in HEK293 cells, O94992 1-359 (natural protein)
chain: MAEPFLSEYQHQPQTSNCTGAAAVQEELNPERPPGAEERVPEEDSRWQSRAFPQLGGRPGPEGEGSLESQPPPLQTQACPESSCLREGEKGQNGDDSSAGGDFPPPAEVEPTPEAELLAQPCHDSEASKLGAPAAGGEEEWGQQQRQLGKKKHRRRPSKKKRHWKPYYKLTWEEKKKFDEKQSLRASRIRAEMFAKGQPVAPYNTTQFLMDDHDQEEPDLKTGLYSKRAAAKSDDTSDDDFMEEGGEEDGGSDGMGGDGSEFLQRDFSETYERYHTESLQNMSKQELIKEYLELEKCLSRMEDENNRLRLESKRLGGDDARVRELELELDRLRAENLQLLTENELHRQQERAPLSKFGD
